Results: patent publication US20200399385A1 (Bristol-Myers Squibb, published 2020)

Experiments:
human OX40 on cells [1] = biological target: T1, human OX40 on cells (human, UniProt P43489 29-277); assay: cell-based or functional assay
T1 sequence: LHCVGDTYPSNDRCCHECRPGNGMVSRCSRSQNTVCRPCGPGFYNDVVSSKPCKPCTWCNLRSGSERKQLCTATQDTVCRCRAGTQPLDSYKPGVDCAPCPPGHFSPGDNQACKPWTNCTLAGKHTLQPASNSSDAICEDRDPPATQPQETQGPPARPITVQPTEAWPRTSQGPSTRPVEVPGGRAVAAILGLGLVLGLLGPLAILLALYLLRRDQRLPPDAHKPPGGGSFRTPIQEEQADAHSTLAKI

human OX40 on cells [2] = biological target: T1, human OX40 on cells; assay: FACS competition on hOX40-293 cells against biotin-OX40.5 (spike biotOX.5 @ 1.0 ug/mL, streptavidin-APC); partial inhibition, FL4-MFI falls from about 29000 to about 17000; the table gives no unit, axis in nM
cynomolgus OX40 on cells [3] = biological target: T2, cynomolgus OX40 on cells (cynomolgus, UniProt P43489 29-277 (human entry)); assay: FACS, activated cyno T cells; mean ± SD, n=5
T2 construct: also called cynoOX40-CHO
T2 chain: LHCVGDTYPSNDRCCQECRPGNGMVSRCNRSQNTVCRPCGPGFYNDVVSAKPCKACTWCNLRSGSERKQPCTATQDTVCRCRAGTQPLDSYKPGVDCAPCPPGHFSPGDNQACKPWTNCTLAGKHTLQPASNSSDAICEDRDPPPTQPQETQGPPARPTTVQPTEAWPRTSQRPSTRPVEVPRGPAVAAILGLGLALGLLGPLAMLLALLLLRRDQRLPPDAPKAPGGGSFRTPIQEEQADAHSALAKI
Method: (§1) Briefly, cells were activated for several days before the binding assay in order to induce OX40 expression. Total leukocytes were isolated from cynomolgus macaque peripheral blood by lysis of red blood cells using an ammonium chloride buffer. The leukocytes were then cultured for four to five days with in flasks pre-coated with anti-human CD3 plus anti-human CD28 antibodies that cross-react with cynomolgus macaque, in the presence of recombinant human IL-2, in order to expand and activate T cells. On the day of the assay, the cells were harvested and stained with a titration of each anti-OX40 antibody. Bound antibodies were detected with a fluorescently conjugated anti-human IgG polyclonal secondary antibody, and the cells were co-stained for CD4 and CD25 to detect activated CD4 T cells. The fluorescence intensity of the staining was measured using a FACSCanto II flow cytometer (Becton Dickinson). The geometric mean fluorescence intensity (GMFI) or median fluorescence intensity (MedFI) of anti-OX40 antibody staining was calculated for the CD4+CD25+ population (FACSDiva software). Dose-response curves were generated and EC50s for antibody binding were calculated using GraphPad Prism software.

human OX40 on cells [4] = biological target: T1, human OX40 on cells; assay: cell-based or functional assay; remark: listed apart in the source
human OX40 on cells [5] = biological target: T1, human OX40 on cells; assay: FACS, activated human T cells; mean ± SD, n=7
cynomolgus OX40 on cells [6] = biological target: T2, cynomolgus OX40 on cells; assay: FACS, activated cyno CD4 T cells
Method: as §1
The same experiment was performed with anti-OX40 antibodies with variable region substitutions.

human OX40 on cells [7] = biological target: T1, human OX40 on cells; assay: FACS, activated human T cells; mean ± SD, n=2
Method: Cells were activated for several days before the binding assay in order to induce OX40 expression. Briefly, PBMCs were cultured for three or four days with magnetic beads coated with anti-human CD3 plus anti-human CD28, in the presence of recombinant human IL-2. On the day of the assay, the beads were removed and the cells stained with a titration of each anti-OX40 antibody. Bound antibodies were detected with a fluorescently conjugated anti-human IgG polyclonal secondary antibody, and the cells were co-stained for CD4 and CD25 to detect activated CD4 T cells. The fluorescence intensity of the staining was measured using a FACSCanto II flow cytometer (Becton Dickinson). The geometric mean fluorescence intensity (GMFI) or median fluorescence intensity (MedFI) of anti-OX40 antibody staining was calculated for the CD4+CD25+ population (FACSDiva software). EC₅₀s for antibody binding were calculated using GraphPad Prism software.

[8] = biological target: T3, his-tagged soluble human OX40 (huOX40-6xhis) (human, UniProt P43489 29-214); assay: SPR, mAb captured on anti-human CH1, OX40-6XHIS analyte, 1:1 fit
T3 construct: made in-house; also called Human-OX40-6XHIS; hOX40; not shown: hexahistidine tag
T3 sequence: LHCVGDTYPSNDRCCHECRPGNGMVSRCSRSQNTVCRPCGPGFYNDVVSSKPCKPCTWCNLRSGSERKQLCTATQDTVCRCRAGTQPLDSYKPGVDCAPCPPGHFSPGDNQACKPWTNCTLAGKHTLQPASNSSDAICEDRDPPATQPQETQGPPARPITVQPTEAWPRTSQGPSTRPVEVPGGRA
Method: The affinity of several OX40 antibodies for soluble human OX40 was tested by SPR analysis. […] Human-OX40-6XHIS antigen in either a single concentration of 400 nM or a 1:2 serial dilution from 400 nM was used. Experiments were carried out on BIACORE® T200 or BIACORE® 3000 SPR instruments. Data was fit to a 1:1 model.

cynomolgus OX40 on cells [9] = biological target: T2, cynomolgus OX40 on cells; assay: FACS, activated cyno T cells; n=1
Method: as §1

human OX40 on cells [10] = biological target: T1, human OX40 on cells; assay: FACS, blocking of OX40L-His (0.2 µg/mL) binding to hOX40-293 cells
Method: Briefly, 293 cells stably transfected with human OX40 were first pre-incubated with varying concentrations of anti-OX40 antibodies. […] The fluorescence intensity of the staining was measured using a FACSCanto II flow cytometer (Becton Dickinson).

human OX40 on cells [11] = biological target: T1, human OX40 on cells; assay: FACS competition on HT1080-hOX40 cells against APC-OX40.1 (FL2 MFI); the table gives no unit, axis 'Ab conc nM'
Method: This experiment was performed to test the cross-blocking properties of various anti-OX40 antibodies to assess binding specificities. […] Cells were washed and if necessary further incubated in the presence of streptavidin-APC conjugate under the same conditions. After the final wash, cells were analyzed on a FACSCanto flow cytometer (BD Bioscience, San Jose, Calif.). Mean fluorescence intensity (MFI) signal was proportional to bound conjugated antibody.

B1: OX40.6 (antibody, human IgG1, kappa, V domains shown)
VH: EVQLVQSGGGLVQPGGSLRLSCAGSGFTFSNYAMYWVRQAPGKGLEWVSAIGIGGDTFYTDSVKGRFTISRDNAKNSLSLQMNSLRAEDTAVYYCARMGTGYFFDYWGQGTLVTVSS
VL: EIVLTQSPATLSLSPGERATLSCRASQSVSSYLAWYQQKPGQAPRLLIYDASNRATGIPARFSGSGSGTDFTLTISSLEPEDFAVYYCQQRSNWPLTFGPGTKVDIKR
IFNγ EC50, CD4 T cells + CHO-CD3-CD32A (human OX40 on cells [1]): 0.033 nM | Proliferation EC50, CD4 T cells + CHO-CD3-CD32A (human OX40 on cells [1]): 0.032 nM | EC50 (human OX40 on cells [2]): 0.857 nM | EC50 (cynomolgus OX40 on cells [3]): 0.11 nM | IL-2 EC50, SEB PBMC, donor BMS-001 (human OX40 on cells [4]): 0.49 nM | IL-2 EC50, SEB PBMC, donor BMS-004 (human OX40 on cells [4]): 0.48 nM | IL-2 EC50, SEB PBMC, donor BMS-009 (human OX40 on cells [4]): 0.45 nM | IL-2 EC50, SEB PBMC, donor BMS-012 (human OX40 on cells [4]): 0.66 nM | IL-2 EC50, SEB PBMC, donor BMS-015 (human OX40 on cells [4]): ~0.46 nM | IL-2 EC50, SEB PBMC, donor BMS-016 (human OX40 on cells [4]): 0.29 nM | IL-2 EC50, SEB PBMC, donor WB10024 (human OX40 on cells [4]): ~0.42 nM | IL-2 EC50, SEB PBMC, donor WB10025 (human OX40 on cells [4]): ~0.85 nM | IL-2 EC50, SEB PBMC, donor WB10026 (human OX40 on cells [4]): 0.28 nM | IL-2 EC50, SEB PBMC, donor WB10027 (human OX40 on cells [4]): 0.45 nM | IL-2 EC50, SEB PBMC, donor WB10137 (human OX40 on cells [4]): 0.56 nM | IL-2 Mean EC50, SEB PBMC, all donors (human OX40 on cells [4]): 0.46 nM | EC50 (human OX40 on cells [5]): 0.13 nM | EC50 (cynomolgus OX40 on cells [6]): ≤ 0.12 nM

B2: 14B6 (antibody, V domains shown)
VH: EVQLEQSGAEVKKPGESLKISCKGSGYSFTSNWIGWVRQMPGKGLEWMGFIYPGDSDTRYSPSFQGQVTISADKSISTAYLQWSSLKASDIAMYYCARYGDDWYFDLWGRGTLVTVSS
VL: EIVLTQSPATLSLSPGERATLSCRASQSVSSYLAWFQQRPGQAPRLLIYDASNRATGIPARFSGSGSGTDFSLTISSLEPEDFAVYYCQQRGDWPITFGQGTRLEIK
notes: also called 14B6.C5.C8; 14B6.C5
EC50 (human OX40 on cells [7]): 0.18 nM | Kd [8]: 8.84 nM | koff [8]: 0.000654 s⁻¹ | kon [8]: 74000 M⁻¹ s⁻¹ | Proliferation EC50, CD4 T cells + CHO-CD3-CD32A (human OX40 on cells [1]): 0.012 nM | EC50 (cynomolgus OX40 on cells [9]): 0.31 nM | EC50 (human OX40 on cells [10]): 1 nM | IC50 (human OX40 on cells [11]): 0.7 nM
